From IntAct's records for PubMed 18571423

B1: Histone-binding protein RBBP7 (Homo sapiens), Q16576 (parent)
chain: MASKEMFEDTVEERVINEEYKIWKKNTPFLYDLVMTHALQWPSLTVQWLPEVTKPEGKDYALHWLVLGTHTSDEQNHLVVARVHIPNDDAQFDASHCDSDKGEFGGFGSVTGKIECEIKINHEGEVNRARYMPQNPHIIATKTPSSDVLVFDYTKHPAKPDPSGECNPDLRLRGHQKEGYGLSWNSNLSGHLLSASDDHTVCLWDINAGPKEGKIVDAKAIFTGHSAVVEDVAWHLLHESLFGSVADDQKLMIWDTRSNTTSKPSHLVDAHTAEVNCLSFNPYSEFILATGSADKTVALWDLRNLKLKLHTFESHKDEIFQVHWSPHNETILASSGTDRRLNVWDLSKIGEEQSAEDAEDGPPELLFIHGGHTAKISDFSWNPNEPWVICSVSEDNIMQIWQMAENIYNDEESDVTTSELEGQGS

Variants of: B1
Conditions: with h4_human H4C16, P62805

| Variant | effect of a mutation on the interaction |
| --- | --- |
| L30Y;E356Q;D357N;E359Q;D360N | disrupting interaction |
| L30Y | disrupting interaction |
| E356Q;D357N;E359Q;D360N | disrupting interaction |
